Measurements: publication PMC2648964, “Molecular Basis for the Sorting of the SNARE VAMP7 into Endocytic Clathrin-Coated Vesicles by the ArfGAP Hrb” (Cell, 2008)

What was measured:
Test in all cases: ITC; VAMP7 longin domain (1.4 ml, 0.15-0.2 mM) in the cell, Hrb at 1.5-2 mM titrated in 30-40 injections of 4-8 μl; all GST tags removed
Details in all cases: both partners purified
Hrb(1-176) His6 = target: T1, Hrb(1-176) His6 (human, UniProt P52594-1 1-176)
T1 construct: human Hrb, residues 1-176; also called residues 1–176 of Hrb; source: E. coli BL21(DE3)/pLysS, purified (Ni-NTA-agarose); not shown: His6, C-terminal, kept
T1 sequence (looked up): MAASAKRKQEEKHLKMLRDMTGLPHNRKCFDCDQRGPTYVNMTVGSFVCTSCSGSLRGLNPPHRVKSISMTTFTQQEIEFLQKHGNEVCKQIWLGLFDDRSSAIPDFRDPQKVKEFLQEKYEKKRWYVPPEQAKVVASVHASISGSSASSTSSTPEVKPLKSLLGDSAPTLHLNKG

[1] = target: T2, Hrb(1-176) His6 L163P/L164P (human, UniProt P52594-1 1-176, L163P | L164P)
T2 construct: human Hrb, residues 1-176, with L163P and L164P; source: E. coli BL21(DE3)/pLysS, purified (Ni-NTA-agarose); not shown: His6, C-terminal, kept
T2 sequence (looked up): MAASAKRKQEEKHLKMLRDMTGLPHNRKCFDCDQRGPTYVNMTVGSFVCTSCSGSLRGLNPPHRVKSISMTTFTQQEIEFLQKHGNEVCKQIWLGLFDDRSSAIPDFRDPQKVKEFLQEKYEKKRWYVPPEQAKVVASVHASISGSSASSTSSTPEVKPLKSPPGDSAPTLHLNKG

[2] = target: T3, Hrb(1-176) His6 L171S/L173S (human, UniProt P52594-1 1-176, L171S | L173S)
T3 construct: human Hrb, residues 1-176, with L171S and L173S; source: E. coli BL21(DE3)/pLysS, purified (Ni-NTA-agarose); not shown: His6, C-terminal, kept
T3 sequence (looked up): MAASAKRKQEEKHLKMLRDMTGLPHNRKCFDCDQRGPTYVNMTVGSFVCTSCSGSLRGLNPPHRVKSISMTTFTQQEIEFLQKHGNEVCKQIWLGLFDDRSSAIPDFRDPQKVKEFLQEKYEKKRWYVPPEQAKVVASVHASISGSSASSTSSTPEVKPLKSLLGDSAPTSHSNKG

[3] = target: T4, Hrb(1-176) His6 L160S/L163S (human, UniProt P52594-1 1-176, L160S | L163S)
T4 construct: human Hrb, residues 1-176, with L160S and L163S; source: E. coli BL21(DE3)/pLysS, purified (Ni-NTA-agarose); not shown: His6, C-terminal, kept
T4 sequence (looked up): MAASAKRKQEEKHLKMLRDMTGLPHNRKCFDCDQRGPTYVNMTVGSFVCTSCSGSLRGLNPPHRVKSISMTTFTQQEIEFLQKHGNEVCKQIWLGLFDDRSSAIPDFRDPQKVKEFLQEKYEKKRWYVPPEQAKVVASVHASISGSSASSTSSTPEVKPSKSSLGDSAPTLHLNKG

| Binder | Kd (Hrb(1-176) His6) | Kd [1] | Kd [2] | Kd [3] |
| --- | --- | --- | --- | --- |
| VAMP7 longin domain L43S/Y45S, GST tag removed (domain or fragment, mouse, UniProt P70280 1-120, looked up, VAMP7 longin domain with L43S and Y45S; limits as the parent GST-VAMP7 longin domain (mouse 1-120 by the antibody paragraph); Used in ITC; source: E. coli BL21(DE3)/pLysS, purified, GST removed with thrombin; not shown: GST, N-terminal, cleaved) MAILFAVVARGTTILAKHAWCGGNFLEVTEQILAKIPSENNKSTSSHGNYLFHYICQDRIVYLCITDDDFERSRAFSFLNEVKKRFQTTYGSRAQTALPYAMNSEFSSVLAAQLKHHSEN | > 300 µM | – | – | – |
| VAMP7 longin domain, GST tag removed (domain or fragment, mouse, UniProt P70280 1-120, looked up, VAMP7 longin domain; GST-VAMP7 longin domain is described as mouse VAMP7 amino acids 1-120 in the antibody paragraph; also called VAMP7 LD; source: E. coli BL21(DE3)/pLysS, purified, GST removed with thrombin; not shown: GST, N-terminal, cleaved) MAILFAVVARGTTILAKHAWCGGNFLEVTEQILAKIPSENNKLTYSHGNYLFHYICQDRIVYLCITDDDFERSRAFSFLNEVKKRFQTTYGSRAQTALPYAMNSEFSSVLAAQLKHHSEN | 10.5 µM | > 300 µM | > 300 µM | > 300 µM |
